Reference: patent publication US8257698B2, “Protein engineering of monoacylglycerol lipase (MGLL)” (Janssen Pharmaceutica N.V., priority 2008, dated 2012)
Residue numbers refer to the chain shown, from its start. In names and notes the source's numbering stands.

B1: wt-MGLL.1-303: wild-type human MGLL isoform 2 amino acids 1-303 with N-terminal His tag and TEV site, SEQ ID NO: 3 (protein)
chain: MVDHHHHHHENLYFQGMPEESSPRRTPQSIPYQDLPHLVNADGQYLFCRYWKPTGTPKALIFVSHGAGEHSGRYEELARMLMGLDLLVFAHDHVGHGQSEGERMVVSDFHVFVRDVLQHVDSMQKDYPGLPVFLLGHSMGGAIAILTAAERPGHFAGMVLISPLVLANPESATTFKVLAAKVLNLVLPNLSLGPIDSSVLSRNKTEVDIYNSDPLICRAGLKVCFGIQLLNAVSRVERALPKLTVPFLLLQGSADRLCDSKGAYLLMELAKSQDKTLKIYEGAYHVLHKELPEVTNSVFHEINMWVSQRTATAGTASPP
modifications: N-terminal His tag and TEV site; Human
B2: mut-MGLL 9-303, L169S, L176S: engineered form of human MGLL, cap mutations plus truncation (protein, UniProt Q99685 9-303, looked up, variant L169S L176S)
chain: RTPQSIPYQDLPHLVNADGQYLFCRYWKPTGTPKALIFVSHGAGEHSGRYEELARMLMGLDLLVFAHDHVGHGQSEGERMVVSDFHVFVRDVLQHVDSMQKDYPGLPVFLLGHSMGGAIAILTAAERPGHFAGMVLISPLVLANPESATTFKVLAAKVLNSVLPNLSSGPIDSSVLSRNKTEVDIYNSDPLICRAGLKVCFGIQLLNAVSRVERALPKLTVPFLLLQGSADRLCDSKGAYLLMELAKSQDKTLKIYEGAYHVLHKELPEVTNSVFHEINMWVSQRTATAGTASPP
B3: mut-MGLL 9-297, L169S, L176S: engineered form of human MGLL, cap mutations plus truncation (protein, UniProt Q99685 9-297, looked up, variant L169S L176S)
chain: RTPQSIPYQDLPHLVNADGQYLFCRYWKPTGTPKALIFVSHGAGEHSGRYEELARMLMGLDLLVFAHDHVGHGQSEGERMVVSDFHVFVRDVLQHVDSMQKDYPGLPVFLLGHSMGGAIAILTAAERPGHFAGMVLISPLVLANPESATTFKVLAAKVLNSVLPNLSSGPIDSSVLSRNKTEVDIYNSDPLICRAGLKVCFGIQLLNAVSRVERALPKLTVPFLLLQGSADRLCDSKGAYLLMELAKSQDKTLKIYEGAYHVLHKELPEVTNSVFHEINMWVSQRTATA
B4: mut-MGLL 1-303, L171Q: engineered form of human MGLL, cap mutation (protein)
chain: B1 chain with L187Q
B5: mut-MGLL 1-303, L167Q, L171Q: engineered form of human MGLL, cap mutations (protein)
chain: B1 chain with L183Q, L187Q
B6: mut-MGLL. 1-303, L167Q, L174Q: engineered form of human MGLL, cap mutations (protein)
chain: B1 chain with L183Q, L190Q
B7: mut-MGLL 1-303, L171Q, L174Q: engineered form of human MGLL, cap mutations (protein)
chain: B1 chain with L187Q, L190Q
B8: mut-MGLL 1-303, L169S, L176S, K36A: engineered human MGLL 1-303 L169S, L176S, K36A; SEQ ID NO: 6, SEQ ID NO: 7 after TEV cleavage (protein)
chain: B1 chain with K52A, L185S, L192S
modifications: His tag and TEV site; SEQ ID 7 after TEV cleavage; Human
B9: mut-MGLL. 1-303, L169S, L176S, K160A: engineered form of human MGLL, cap plus surface mutations (protein)
chain: B1 chain with K176A, L185S, L192S
B10: mut-MGLL. 1-303, L169S, L176S, K165A: engineered form of human MGLL, cap plus surface mutations (protein)
chain: B1 chain with K181A, L185S, L192S
B11: mut-MGLL 1-303, L169S, L176S, K226A: engineered form of human MGLL, cap plus surface mutations (protein)
chain: B1 chain with L185S, L192S, K242A
B12: mut-MGLL 1-303, L169S, L176S, K36A, K226A: engineered form of human MGLL, cap plus surface mutations (protein)
chain: B1 chain with K52A, L185S, L192S, K242A

System: not listed separately
Assay: Size exclusion chromatography of MGLL purified in the absence of detergent (aggregation/monomer)
Assay type: physicochemical
Details: detergent in the lysis buffer only
Method: A pilot purification of wt-MGLL (hMGLL 1-303) (SEQ ID NO: 3), performed in the complete absence of detergent, generated no protein (data not shown). A second purification of wt-MGLL (hMGLL 1-303) (SEQ ID NO: 3) was done with detergent in the lysis buffer only. Frozen cell pellets for wt-MGLL (hMGLL 1-303) (SEQ ID NO: 3) were thawed, resuspended, and lysed in Bugbuster® lysis buffer for 1 hour at 4° C. Bugbuster® lysis buffer is a proprietary lysis buffer from […] that contains detergent. The lysate was clarified by centrifugation at 40,000×g for 1 hr. No detergent was added at this point or during the rest of the purification. From this point forward, the purification protocol and buffers were the same as described below for mut-MGLL. An average of 2.2 mg of wt-MGLL (hMGLL 1-303) (SEQ ID NO: 3) per liter of cell culture was obtained.
Mutant MGLL (mut-MGLL) constructs were purified in the absence of detergent. Frozen cell pellets were thawed and resuspended in buffer A (50 mM Hepes buffer pH 7.5, 400 mM NaCl, 5% glycerol, 0.05% BME, 1× Complete EDTA-free protease inhibitor cocktail tablets (Roche)), dounce homogenized and mechanically lysed with a microfluidizer processor (Microfluidics). The extract was clarified by centrifugation at 40,000×g for 1 hr. The cleared lysate was loaded on a 1 ml His-Trap FF Crude column (GE-Healthcare) at 4° C. using the AktaXpress system. For larger preparations, a 5 ml His-Trap FF Crude column was used. The column was washed with 10-15 column volumes (CV) of buffer A containing 30 mM imidazole and mut-MGLL was eluted with 5 CV of 50 mM Hepes buffer pH 7.5, 400 mM NaCl, 5% glycerol, 0.05% BME, 400 mM imidazole. In most preparations, 30 mM imidazole was included in Buffer A from the beginning of the preparation to reduce non-specific binding on the His-Trap column. […] Fractions were analysed by SDS-PAGE. […] Purification yields were determined by Bradford assay using the protein assay kit from BioRad according to manufacturer's instruction with BSA as a standard (Bradford 1976).

Molecule | aggregation by size exclusion chromatography (in words)
B1 | complete aggregation

Same assay, conditions: size exclusion, purified in the absence of detergent

Molecule | aggregation
B1 | 100%

System: not listed separately
Assay: Thermofluor thermal stability (melting transition) of MGLL
Assay type: physicochemical
Details: not given
Excerpt: The Thermofluor® assay is a powerful tool to screen for small molecule inhibitors interacting with a protein's active site or allosteric site. The assay detects small changes in the intrinsic melting temperature of proteins based on binding of ligands. Compounds that interact preferentially with the native form of the protein will increase the Tm, the temperature at which half of the protein is unfolded (Pantoliano et al. 2001). The technique monitors changes in the fluorescent intensity of dyes such as 1-anilinonaphthalene-8-sulfonic acid (1,8-ANS). The fluorescent dyes are quenched in aqueous environments but increase in fluorescence on binding to the hydrophobic core of denatured proteins.
Thermofluor® assays were conducted to characterize wt-MGLL (hMGLL 1-303) (SEQ ID NO: 3) and mut-MGLL (hMGLL 1-303 L169S, L176S) and evaluate if the MGLL mutants could be used for high-throughput screening using Thermofluor®. Three microliters of protein at a concentration of 0.05 mg/ml in 50 mM Pipes pH 7, 200 mM NaCl, 100 μM 1,8-ANS, and 0.001% Tween was added to pre-dispensed compound plates. Wells were overlaid with silicone oil (1 μL, Fluka, type DC 200) to prevent evaporation. Final compound concentrations varied from 150 to 0.15 μM. Assay plates were heated at a rate of 1° C./min for all experiments over a temperature range sufficient to measure protein unfolding. Fluorescence was measured by continuous illumination with UV light (Hamamatsu LC6) supplied via fiber optic and filtered through a custom band-pass filter (380-400 nm; >60D cutoff). Fluorescence emission was detected by measuring light intensity using a CCD camera (Sensys, Roper Scientific) filtered to detect emission at 500±25 nm, resulting in simultaneous and independent readings of all 384 wells. One or more images were collected at each temperature, and the sum of the pixel intensity in a given area of the assay plate was recorded vs temperature, and fit to standard equations to yield the Tm.

Molecule | quality of the melting transition
B1 | very poor transition

Same assay, conditions: 0.05 mg/ml protein, 1,8-ANS

Molecule | Tm (midpoint of the melting transition)
B1 | 58 °C

System: MGLL
Assay: Kinetic analysis: hydrolysis of 4-methyl coumarin butyrate (4MC-B) by MGLL constructs
Assay type: biochemical, human
Details: substrate 4MC-B; 4-5 nM MGLL, 20 mM Pipes pH 7, 150 mM NaCl, 37° C.; average of 2 or 4 separate assays
Excerpt: A small fluorescent substrate, 4-methyl coumarin butyrate (4MC-B) was used to compare the activity of the engineered mutants to the activity of wt-MGLL (hMGLL 1-303) (SEQ ID NO: 3). The catalytic efficiency (kcat/KM) for the hydrolysis of the 4MC-B was similar for wt-MGLL (hMGLL 1-303) (SEQ ID NO: 3) and all MGLL mutants tested (Table 2). A larger more aliphatic fluorescent substrate, Coumarin Arachidonate (C-A), structurally more closely related to the MGLL natural substrate, 2-AG, was used to compare the activity of wt-MGLL (hMGLL 1-303) (SEQ ID NO: 3) to TEV cleaved mut-MGLL (hMGLL 1-303 L169S, L176S) (SEQ ID NO: 5).
The Michaelis-Menten parameters for the hydrolysis of 4-methylcoumarin butyrate (4MC-B) and coumarin arachidonate (C-A) substrate were determined using 4-5 nM of MGLL in 20 mM Pipes pH 7 and 150 mM NaCl at 37° C. The change in fluorescence due to substrate hydrolysis was monitored using excitation/emission wavelengths of 335/440 in a Safire II instrument from Tecan. The hyperbolic rates versus substrate concentration curves for the hydrolysis of 4MC-B were fit to the Michaelis-Menten equation using Excel.

Molecule | Kcat | Km
B1 | 68 min⁻¹ | 162 µM
B2 | 27 min⁻¹ | 88 µM
B3 | 26 min⁻¹ | 126 µM
B4 | 51 min⁻¹ | 105 µM
B5 | 59 min⁻¹ | 84 µM
B6 | 70 min⁻¹ | 84 µM
B7 | 47 min⁻¹ | 89 µM
B8 | 51 min⁻¹ | 124 µM
B9 | 30 min⁻¹ | 90 µM
B10 | 27 min⁻¹ | 137 µM
B11 | 38 min⁻¹ | 110 µM
B12 | 30 min⁻¹ | 123 µM
